Test system: ERBB1 and ERBB2
Test: Tissue levels and phosphorylation of ERBB1 and ERBB2 by IB
Format: in vivo, mouse
Details: CCl4 0.5 g/kg or hPEPD 4 mg/kg i.p., 24 h
Protocol: Animal studies. All animal studies were performed in accordance with protocols approved by the Institutional Animal Care and Use Committee at Roswell Park Cancer Institute. Male mice at 7-8 weeks of age were used, including wild type (WT) mice (C57BL/6), and mice deficient in FXII (C57BL/6-FXII^−/−) or FVII (C57BL/6-FVII^tTA/tTA). WT C57BL/6 mice were purchased from Taconic. C57BL/6-FXII^−/− mice and C57BL/6-FVII^tTA/tTA mice were bred in our own facility and genotyped. The breeders were kindly provided by Dr. Francis J. Castellino at University of Notre Dame. […] CCl4 was dissolved in corn oil, whereas all other substances were dissolved in PBS. The vehicle or the test substance was given to mice in 0.1 ml volume per 20 g body weight. Blood was collected from the mice at specific times by cardiac puncture at the time of sacrifice by carbon dioxide, and heart, liver and kidney were also collected from some of the mice. Blood was collected into K3 EDTA-containing tubes (Multivette 600 from Sarstedt), unless specified otherwise. All blood samples were promptly centrifuged to obtain plasma samples.
IB. […] Protein concentrations in all samples were measured by the BCA assay kit. […] The proteins were transferred to polyvinylidene fluoride membrane, probed with specific antibodies and detected using the ECL Plus Kit (Amersham) or the SuperSignal West Pico Kit (Thermo Scientific).

B1: hPEPD: recombinant human prolidase (PEPD), 6xHis tagged to the carboxy terminus (protein, UniProt P12955 2-493, looked up)
Xaa-Pro dipeptidase: AAATGPSFWLGNETLKVPLALFALNRQRLCERLRKNPAVQAGSIVVLQGGEETQRYCTDTGVLFRQESFFHWAFGVTEPGCYGVIDVDTGKSTLFVPRLPASHATWMGKIHSKEHFKEKYAVDDVQYVDEIASVLTSQKPSVLLTLRGVNTDSGSVCREASFDGISKFEVNNTILHPEIVECRVFKTDMELEVLRYTNKISSEAHREVMKAVKVGMKEYELESLFEHYCYSRGGMRHSSYTCICGSGENSAVLHYGHAGAPNDRTIQNGDMCLFDMGGEYYCFASDITCSFPANGKFTADQKAVYEAVLRSSRAVMGAMKPGVWWPDMHRLADRIHLEELAHMGILSGSVDAMVQAHLGAVFMPHGLGHFLGIDVHDVGGYPEGVERIDEPGLRSLRTARHLQPGMVLTVEPGIYFIDHLLDEALADPARASFLNREVLQRFRGFGGVRIEEDVVVTDSGIELLTCVPRTVEEIEACMAGCDKAFTPFSGPK
modifications: C-terminal 6xHis tag
notes: recombinant human prolidase (PEPD), 6xHis tagged to the carboxy terminus
Question: How did the “changes in ERBB1/ERBB2 tyrosine phosphorylation and receptor depletion in heart, kidney and liver, WT mice compared to FXII−/− mice” value turn out when B1 was run?
Answer: reduced changes in receptor tyrosine phosphorylation
